According to US20250154272A1 (Astellas, published 2025):
Where two headings read alike, the source gives them in different places. Values belong to the binder of their own block, whether it stands above or below them.

Experiments:
[1] = target: T1, human CD137-human Fc fusion protein (human, UniProt Q07011 24-186); assay: ELISA of the purified antibody on coated plates
T1 construct: not shown: human IgG1 Fc of the pFUSE-hIgG1-Fc1 vector (InvivoGen, pfuse-hg1fc1)

[2] = target: T2, monkey CD137-human Fc fusion protein (monkey; human, UniProt Q07011 24-186); assay: ELISA of the purified antibody on coated plates
T2 construct: not shown: human IgG1 Fc of the pFUSE-hIgG1-Fc1 vector (InvivoGen, pfuse-hg1fc1)
T2 chain: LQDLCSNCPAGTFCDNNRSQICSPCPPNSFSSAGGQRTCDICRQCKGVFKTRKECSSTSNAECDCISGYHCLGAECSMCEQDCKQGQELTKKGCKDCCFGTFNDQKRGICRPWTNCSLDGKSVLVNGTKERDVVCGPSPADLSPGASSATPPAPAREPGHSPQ

[3] = target: T3, human CD137-His tag protein (R&D Systems, 9220-4B) (human, UniProt Q07011 24-186); assay: ELISA, human CD137-His tag protein immobilized on the plate, anti-human IgG Fc-HRP, A450-A570
T3 construct: Bought protein; not shown: His tag of the bought protein

[4] = target: T3, human CD137-His tag protein (R&D …); assay: as above; remark: listed apart in the source

binding result [1]: binds | binding result [2]: binds
B1: anti-CD137 antibody A2-73 (antibody, V domains shown)
VH: QVQLQESGPGLVKPSETLSLTCTVSGGSISSYYWTWIRQPPGKGLELVGYIYYSGYTSYNPSLKSRVTISIDTSKNQFSLQLNSVTAADTAVYFCARDDYGGNGYYGVDVWGQGTTVTVSS
VL: not shown
notes: Purified from a hybridoma derived from an AlivaMab mouse

EC50 (read off the curve) [3]: ~10 ng/mL
B2: anti-CLDN4 (hKM3900)/anti-CD137 scFv bispecific antibody hKM3900_tA2-32LH_S (bispecific antibody)
heavy (part 1 of 2): EVQLVQSGAEVKKPGASVKISCKASGYTFTDYYMNWVRQAPGQGLEWMGDVVPNNGVPTYNQKFKGRVTITADKSTSTAYMELRSLRSEDTAVYYCARPHYYYAGRSGAMDYWGQGTLVTVSS
heavy (part 2 of 2): QSVLTQPPSASGTPGQRVTISCSGSSSNIGSNTVNWYQQFPGTAPKLLIYSNNQRPSGVPDRFSGSKSGTSASLAISGLQSEDEADYYCAGWDDSLNGPVFGGGTKLTVLGGGGGSGGGGSGGGGSGGGGSQVQLQESGPGLVKPSETLSLTCTVSGGSISGYYWSWIRQPPGKGLEWIGYIYYSGFTNYNPSLKSRVTISVDTSKNQFSLKLSSVTAADTAVYYCTRDHSHYYYMDVWGQGTTVTVSS
light: DIQLTQSPSSLSASVGDRVTITCTASSTVSSTYLHWYQQKPGKAPKLLIYSTSNLASGVPSRFSGSGSGTDYTLTISSLQPEDFATYYCHQYHRSPPTFGQGTKLEIKRTVAAPSVFIFPPSDEQLKSGTASVVCLLNNFYPREAKVQWKVDNALQSGNSQESVTEQDSKDSTYSLSSTLTLSKADYEKHKVYACEVTHQGLSSPVTKSFNRGEC
notes: scFv at the heavy chain C-terminus; not shown: human IgG1 heavy chain constant region; mutation positions by EU index; GS linker

EC50 (read off the curve) [4]: ~10 ng/mL
B3: anti-CLDN4 (hKM3900)/anti-CD137 scFv bispecific antibody hKM3900_tA2-32 (bispecific antibody)
heavy (part 1 of 2): EVQLVQSGAEVKKPGASVKISCKASGYTFTDYYMNWVRQAPGQGLEWMGDVVPNNGVPTYNQKFKGRVTITADKSTSTAYMELRSLRSEDTAVYYCARPHYYYAGRSGAMDYWGQGTLVTVSS
heavy (part 2 of 2): QVQLQESGPGLVKPSETLSLTCTVSGGSISGYYWSWIRQPPGKCLEWIGYIYYSGFTNYNPSLKSRVTISVDTSKNQFSLKLSSVTAADTAVYYCTRDHSHYYYMDVWGQGTTVTVSSGGGGSGGGGSGGGGSQSVLTQPPSASGTPGQRVTISCSGSSSNIGSNTVNWYQQFPGTAPKLLIYSNNQRPSGVPDRFSGSKSGTSASLAISGLQSEDEADYYCAGWDDSLNGPVFGCGTKLTVLG
light: DIQLTQSPSSLSASVGDRVTITCTASSTVSSTYLHWYQQKPGKAPKLLIYSTSNLASGVPSRFSGSGSGTDYTLTISSLQPEDFATYYCHQYHRSPPTFGQGTKLEIKRTVAAPSVFIFPPSDEQLKSGTASVVCLLNNFYPREAKVQWKVDNALQSGNSQESVTEQDSKDSTYSLSSTLTLSKADYEKHKVYACEVTHQGLSSPVTKSFNRGEC
notes: as for B2

EC50 (read off the curve) [3]: ~10 ng/mL
B4: anti-CLDN4 (hKM3900)/anti-CD137 scFv bispecific antibody hKM3900_3-34-j6_S (bispecific antibody)
heavy (part 1 of 2): EVQLVQSGAEVKKPGASVKISCKASGYTFTDYYMNWVRQAPGQGLEWMGDVVPNNGVPTYNQKFKGRVTITADKSTSTAYMELRSLRSEDTAVYYCARPHYYYAGRSGAMDYWGQGTLVTVSS
heavy (part 2 of 2): EVQLLESGGGLVQPGESLRLSCKAFGYTFTNHHINWVRQAPGKCLEWVGYINPYNDYTTFNDKFKDRFTLSVDKSKSTAYLQMNSLRAEDTAVYYCARTWGHWYFDLWGQGTLVTVSSGGGGSGGGGSGGGGSNIQMTQSPSSLSASVGDRVTITCRASQSVSSNLAWYQQKPGKAPKLLIYDSSTRATGVPSRFSGSGSGTDFTLTISSLQPEDFATYYCQQYNNWPPWTFGCGTKLEIKR
light: DIQLTQSPSSLSASVGDRVTITCTASSTVSSTYLHWYQQKPGKAPKLLIYSTSNLASGVPSRFSGSGSGTDYTLTISSLQPEDFATYYCHQYHRSPPTFGQGTKLEIKRTVAAPSVFIFPPSDEQLKSGTASVVCLLNNFYPREAKVQWKVDNALQSGNSQESVTEQDSKDSTYSLSSTLTLSKADYEKHKVYACEVTHQGLSSPVTKSFNRGEC
notes: scFv at the heavy chain C-terminus; Fc mutation P331S with L234A and L235A; not shown: human IgG1 heavy chain constant region; mutation positions by EU index; GS linker

EC50 (read off the curve) [4]: ~10 ng/mL
B5: anti-CLDN4 (hKM3900)/anti-CD137 scFv bispecific antibody hKM3900_tA2-73 (bispecific antibody)
heavy (part 1 of 2): EVQLVQSGAEVKKPGASVKISCKASGYTFTDYYMNWVRQAPGQGLEWMGDVVPNNGVPTYNQKFKGRVTITADKSTSTAYMELRSLRSEDTAVYYCARPHYYYAGRSGAMDYWGQGTLVTVSS
heavy (part 2 of 2): QVQLQESGPGLVKPSETLSLTCTVSGGSISSYYWTWIRQPPGKCLELVGYIYYSGYTSYNPSLKSRVTISIDTSKNQFSLQLNSVTAADTAVYFCARDDYGGNGYYGVDVWGQGTTVTVSSGGGGSGGGGSGGGGSQSVLTQPPSASGTPGQRVTISCSGSSSNIGNNPVNWYRQLPGTAPKLLIYSNNQRPSGVPDRFSGSKSGTSASLAISGLQSEDEADYYCAAWDDSLNGWVFGCGTKLTVLG
light: DIQLTQSPSSLSASVGDRVTITCTASSTVSSTYLHWYQQKPGKAPKLLIYSTSNLASGVPSRFSGSGSGTDYTLTISSLQPEDFATYYCHQYHRSPPTFGQGTKLEIKRTVAAPSVFIFPPSDEQLKSGTASVVCLLNNFYPREAKVQWKVDNALQSGNSQESVTEQDSKDSTYSLSSTLTLSKADYEKHKVYACEVTHQGLSSPVTKSFNRGEC
notes: as for B2

EC50 (read off the curve) [3]: ~10 ng/mL
B6: anti-CLDN4 (hKM3900)/anti-CD137 scFv bispecific antibody hKM3900_tA2-32_S (bispecific antibody)
heavy (part 1 of 2): EVQLVQSGAEVKKPGASVKISCKASGYTFTDYYMNWVRQAPGQGLEWMGDVVPNNGVPTYNQKFKGRVTITADKSTSTAYMELRSLRSEDTAVYYCARPHYYYAGRSGAMDYWGQGTLVTVSS
heavy (part 2 of 2): QVQLQESGPGLVKPSETLSLTCTVSGGSISGYYWSWIRQPPGKCLEWIGYIYYSGFTNYNPSLKSRVTISVDTSKNQFSLKLSSVTAADTAVYYCTRDHSHYYYMDVWGQGTTVTVSSGGGGSGGGGSGGGGSQSVLTQPPSASGTPGQRVTISCSGSSSNIGSNTVNWYQQFPGTAPKLLIYSNNQRPSGVPDRFSGSKSGTSASLAISGLQSEDEADYYCAGWDDSLNGPVFGCGTKLTVLG
light: DIQLTQSPSSLSASVGDRVTITCTASSTVSSTYLHWYQQKPGKAPKLLIYSTSNLASGVPSRFSGSGSGTDYTLTISSLQPEDFATYYCHQYHRSPPTFGQGTKLEIKRTVAAPSVFIFPPSDEQLKSGTASVVCLLNNFYPREAKVQWKVDNALQSGNSQESVTEQDSKDSTYSLSSTLTLSKADYEKHKVYACEVTHQGLSSPVTKSFNRGEC
notes: as for B2

EC50 (read off the curve) [4]: ~10 ng/mL
B7: anti-CLDN4 (hKM3900)/anti-CD137 scFv bispecific antibody hKM3900_tA2-48 (bispecific antibody)
heavy (part 1 of 2): EVQLVQSGAEVKKPGASVKISCKASGYTFTDYYMNWVRQAPGQGLEWMGDVVPNNGVPTYNQKFKGRVTITADKSTSTAYMELRSLRSEDTAVYYCARPHYYYAGRSGAMDYWGQGTLVTVSS
heavy (part 2 of 2): QVQLQESGPGLVKPSETLSLTCTVSGGSISSYYWSWIRQPPGKCLEWIGYIYYSGYTNYNPSLKSRVNISVDTSQNQFSLKLNSLTAADTAVYYCARTHSYYYGMDVWGQGTTVTVSSGGGGSGGGGSGGGGSQSVLTQPPSASGTPGQRVTISCSGSSSNIGNNPVNWYQQFPGTAPKLLIYSNNQRPSGVPDRFSGSKSGTSASLAISGLQSEDEADYYCEAWDDSLNGPVFGCGTKLTVLG
light: DIQLTQSPSSLSASVGDRVTITCTASSTVSSTYLHWYQQKPGKAPKLLIYSTSNLASGVPSRFSGSGSGTDYTLTISSLQPEDFATYYCHQYHRSPPTFGQGTKLEIKRTVAAPSVFIFPPSDEQLKSGTASVVCLLNNFYPREAKVQWKVDNALQSGNSQESVTEQDSKDSTYSLSSTLTLSKADYEKHKVYACEVTHQGLSSPVTKSFNRGEC
notes: as for B2

EC50 (read off the curve) [3]: ~10 ng/mL
B8: anti-CLDN4 (hKM3900)/anti-CD137 scFv bispecific antibody hKM3900_tA2-48_S (bispecific antibody)
heavy (part 1 of 2): EVQLVQSGAEVKKPGASVKISCKASGYTFTDYYMNWVRQAPGQGLEWMGDVVPNNGVPTYNQKFKGRVTITADKSTSTAYMELRSLRSEDTAVYYCARPHYYYAGRSGAMDYWGQGTLVTVSS
heavy (part 2 of 2): QVQLQESGPGLVKPSETLSLTCTVSGGSISSYYWSWIRQPPGKCLEWIGYIYYSGYTNYNPSLKSRVNISVDTSQNQFSLKLNSLTAADTAVYYCARTHSYYYGMDVWGQGTTVTVSSGGGGSGGGGSGGGGSQSVLTQPPSASGTPGQRVTISCSGSSSNIGNNPVNWYQQFPGTAPKLLIYSNNQRPSGVPDRFSGSKSGTSASLAISGLQSEDEADYYCEAWDDSLNGPVFGCGTKLTVLG
light: DIQLTQSPSSLSASVGDRVTITCTASSTVSSTYLHWYQQKPGKAPKLLIYSTSNLASGVPSRFSGSGSGTDYTLTISSLQPEDFATYYCHQYHRSPPTFGQGTKLEIKRTVAAPSVFIFPPSDEQLKSGTASVVCLLNNFYPREAKVQWKVDNALQSGNSQESVTEQDSKDSTYSLSSTLTLSKADYEKHKVYACEVTHQGLSSPVTKSFNRGEC
notes: as for B2

EC50 (read off the curve) [3]: ~10 ng/mL
B9: anti-CLDN4 (hKM3900)/anti-CD137 scFv bispecific antibody hKM3900_tA2-73_S (bispecific antibody)
heavy (part 1 of 2): EVQLVQSGAEVKKPGASVKISCKASGYTFTDYYMNWVRQAPGQGLEWMGDVVPNNGVPTYNQKFKGRVTITADKSTSTAYMELRSLRSEDTAVYYCARPHYYYAGRSGAMDYWGQGTLVTVSS
heavy (part 2 of 2): QVQLQESGPGLVKPSETLSLTCTVSGGSISSYYWTWIRQPPGKCLELVGYIYYSGYTSYNPSLKSRVTISIDTSKNQFSLQLNSVTAADTAVYFCARDDYGGNGYYGVDVWGQGTTVTVSSGGGGSGGGGSGGGGSQSVLTQPPSASGTPGQRVTISCSGSSSNIGNNPVNWYRQLPGTAPKLLIYSNNQRPSGVPDRFSGSKSGTSASLAISGLQSEDEADYYCAAWDDSLNGWVFGCGTKLTVLG
light: DIQLTQSPSSLSASVGDRVTITCTASSTVSSTYLHWYQQKPGKAPKLLIYSTSNLASGVPSRFSGSGSGTDYTLTISSLQPEDFATYYCHQYHRSPPTFGQGTKLEIKRTVAAPSVFIFPPSDEQLKSGTASVVCLLNNFYPREAKVQWKVDNALQSGNSQESVTEQDSKDSTYSLSSTLTLSKADYEKHKVYACEVTHQGLSSPVTKSFNRGEC
notes: as for B2

binding result [1]: binds | binding result [2]: binds
B10: anti-CD137 antibody A2-48 (antibody, V domains shown)
VH: QVQLQESGPGLVKPSETLSLTCTVSGGSISSYYWSWIRQPPGKGLEWIGYIYYSGYTNYNPSLKSRVNISVDTSQNQFSLKLNSLTAADTAVYYCARTHSYYYGMDVWGQGTTVTVSS
VL: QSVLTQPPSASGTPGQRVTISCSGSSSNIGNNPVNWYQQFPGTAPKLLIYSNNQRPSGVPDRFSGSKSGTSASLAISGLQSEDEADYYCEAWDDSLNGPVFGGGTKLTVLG
notes: as for B1

binding result [1]: binds | binding result [2]: binds
B11: anti-CD137 antibody 3-34 (antibody, V domains shown)
VH: QVQLQQSEAELVRPGASVKISCKAFGYTFTNHHINWVKQRPGQGLDWIGYINPYNDYTTFNRKFKDKATLTVHKSSSTAYMELSGLTSDDSAVYYCARTWGHWYFDLWGRGTVVTVSS
VL: EIVMTQSPATLSVSPGERATLSCRASQSVSSNLAWYQQKPGQAPRLLIYDSSTRATGIPARFSGSGSGTDFTLTISSLQSEDFAVYYCQQYNNWPPWTFGQGTKVEIKR
notes: Purified from a hybridoma derived from a VelocImmune mouse (human variable, mouse constant regions)
